Reference: the domain aggregation screens of Martell et al. (2025)

Experiment: soluble fraction after stress (log2 fold change); higher = more stays soluble; pooled small domains, quantitative proteomics
Conditions: stress: pH 4
In short: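 After pH 4 stress, pooled custom libraries of small protein domains were quantified with high-throughput quantitative proteomics. Aggregation propensity is taken from the fold change in each domain's soluble amount following the acid stress. The scale is log2, where higher values mean more stayed soluble.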

Sequence	soluble fraction (log2)
HMSTRKAFVNGDGVRLRSGPGTNHSIRASLTKGQTVFVTGTKDGWASVSVQGGASGWVSADLLKYE	0.237
HMTLSVRQRMSQIINKIDVSNFTDFTKLFDINEGRLGVAVTFLAILELLKDTMIDVIQNEEFAPLHIKVSS	-0.339
HMAAEFERKNGIVYFFHSSEKPHLNYPHVHARYGEDTISISLRDFTVIGSFSSKKKQKEAVEYVKNK	-0.352
HMHHIDYKQLRRINPVAARRAVLDYLESTGGNITKTAQVFSINRSVVYDILKKQASGDLSDRLRIP	0.249
HMDAGLAEIIRSFEDNLGGFPPAAREDLLGWREIFTDDLILLAIKKAALAGVRKWSYVNGILKVWKNEGVR	-1.09
HMEDGRLPPPGTVLRREYKGRAVFVRVLPKGFEFEGEVYRSLSAIAAKVTGSHWNGFRFFGLHE	0.199
HMPHSTTDFSVSPDERQIVYSTNLQGRYDLWALDHNQGYPYPLTKKGQMSFFIKHLPGSQMILTGFD	0.0618
HMGISQAQAMQALRKLIEEEDKHTPLSDQTLMERLKAAGIPLARRTIAKYRESLGIPSAAQRK	-0.0327
HMGEGTAVGKALKFLAAQGKKFAPELLDMAGSLTGVEALSKLGDAIKGDPELSELDKRILLAELETDAV	-0.744
HMAQLPADMSRVKSADVSDAQLREFVQKAQASGQTETQLFREFSRRGMPTNEINILRSRMVGLQNN	0.0928
HMENMTLGQRIQALRKQHGLSQEGLGERLGVSRQAISRWEMDGAVPEVDKLIAMARLFGVSLNQLLGVE	-0.0911
HMKTDLQIQQDVMAELKWEPKVNAAHIGVEVKHGVVTLSGHVDSFAEKWNAEQAAKRVAGVKFIAIELDV	-0.0349
HMDLGEQIIEKLRAAGGFLAITDKSPAEEIYELFATSKKNYKKAVGGLYKKGLLVIEDDGIRLTPAGR	≥ 0.43
HMTRTISKVAKELAINIETVRFYERRGLIEQPPKPELGYRHYPDETVNRIRFIKRAQELGFTLEEIANLLS	-1.21
HMKKKSYIVSFATDEDAQRFAREGFEVISLSGRQITVSLKGEMMPLVKALGSYQVVGLETVA	-0.72
HMKKQLKSEAVADELRRKILSGGFPDKRLPRKDELTEYFQVSQKTVEAALKMLTAEGLIRGVKGTGIFVNG	0.156
HMGADSFTGYTPIHKIDNPSDGINDGASYVVYFQKDGTDPTEFYKAVNANASTLAQLTSGTEYDLASSKKL	-0.722
HMHPDHRTATVPDAAAGRRFDAVLAELFPQFSRSKLTTWIKSGEVLLNGEVPRPRDAVVGGETVSLNVVL	≥ 0.43
HMIDFTHEDIERLWNAIVHYVPERQKSDMAIDFIKSLEDIGVEHDEIKASAEYDPKLEEAINTVY	-0.357
HMRMTPRQALDDLIREREETYAAVSRLLGRNTAYIQQYIKRGTPARLDQSDIAQLALHFDVPAKLLGGKE	≥ 0.43
HMKYSYAELTKLQEQIAQDRNAPLTVPNALGIGLDERNNVIEITVNIADEAAAKAYYLQKYGDRISLKTTD	-0.243
HMNNKVAVKSGYYFEIFNKEEIPTTLAKTKQKVKINNIQYDLYQGMSLDDERKIDDMFGDRMGYSIDDY	-1.9
HMGVNEGVNKLFKTIQETPGKRMPYYALATDVPEKTIERWLKQLREEGKIEFKGSAKTGGYFVIDK	0.22
HMSFDENEALRKALDVFWEKGYDGTSLSDLTEAMGINKPSLYATFGNKDQLFLKAIEMYENR	-1.44
HMDAYSYFIRTYPLVDDPLIGDIRRIFAETHDGNPAGDADVRHILWRLLFERELYPTLDEATADWY	-1.86

Sequence	soluble fraction (log2)
HMEELIIQEELANKRLDIAISLLFPELTRAHAQKLIKEGSVLVDGKPRKASYPLTAGKRLSVTLPEPE	-0.0497
HMQETPAMLAMKELPTEDEQRIYMMLQEDYDSVLLVKTIRNAFSQNPQLTRQQLLPIILTWLMT	-1.08
HMTSLGLEGLVNTTAIATSDLRPSGWALAGERKIFVVSEGEFIDNGDKIRILTVDGNRIVVRKETNK	-0.189
HMENITTILRSIKNEIKKNSTFVGDDFVNQARSMNQGQIKEKSIYGHGTKKEIEELRDEGVDVLNIPWIT	0.0184
HMNSNSLSFSKFMQEVEAGRVIEVQIKGNDIQGELSDGSKFKTYSPNYPNLVDKLSENKVSIVATPL	0.105
HMEEKEIGQTLSVKIRENVLSKLDMTRDLEDEEVKHIIEHEIWLAAKKHYISLEERNSIKRGIFNSL	-0.773
HMFGEKEFYQWIGKTAGEKFSGLPAAVIKSLYKYWREYNLSEEDIMGFIRQTELLPKRTPLDVELFFEK	-1.36
HMSTANISIEQAKEIALNHANLTSNQVIFSRTELDYDNGIQKYEVEFYYNNREYSYEINANTGDILGYEQ	-0.417
HMFAADIGVGIVDADSLRVRSEPSTGAPIVTSLLRGTQVTVQEKLDGWYRITYNDVSGFVSAEYLIFTADE	-0.297
HMLSVKEQTYQIIKEKILNQEYPAGARININELAEELGISNSPIREALSLLEQQGLVISNRSSGATVT	-0.772
HMGEIHALIPGLVSRLFVKPGDRVENGQGLLILEAMKMENEIDSPISGVVGKIYIKAGDKVEKGELIMEIN	0.115
HMEVKRANRKERFLEALPYQFSRQDYLNIADKNKIPHKTAEGYITKFVDAGLIHREAHNNYTNPTKA	0.045
HMWAQSVSLHGLLGRQALLIVDGKPPRAVAPGQTHLGVTVLSTDEDRAVVALAGGQRLTLRVGESPVSVG	0.264
HMQVLSESDVEDIKAISGGDKAYDNLMEWAGSKLSKQDAKDYDDVLATGNKTAITFAVKALMAQYENAN	-1.05
HMYGTERILAQLANYGIPNKLAFQIQDFYKEETLQIVEQQPYRLVEDIQGMGFKIADQLAEELGI	-1.35
HMVSINETAFIQIKNSSATEIKEKITALKLDELKNVTITADIRTNKLIVVGPKATINKIQELVIELDTES	-0.49
HMFTYEETIGKSADVYLTIPALKAGKGKIIISVRGSVHELDAMTNNAEKISTGAVVKIVRIEHGNILLVEN	-0.44
HMNIIMLGEFIKEQRIKRKMTQEYLASELGISRPTYSQIELGTRELTIPEARKMAAIFNISLEDFLAEKE	0.149
HMELEAFPNPTDMFLSFTTKEKTPLAIYDINGKQVLYVEQITSSSKINVSKLSEGVYFAKTNQGTVKWVK	-0.46
HMQARSQQTIQTLFKAAAQILDKEGEAGLSTNKVAAAAGFSIGTLYQYFPSKEVLIQAMAAR	0.0662
HMNENNFIVAMRERLAQFIETSGTSQSRIAKELGVSKSTVSLFLGGTYGGNNQELARNLEQLLSMGAARR	0.212
HMAQRAADEARTHEILGLLRQARAALDHGGTARAARLRASIAEKLPAAPALPAWFARQLEQVDSQLAELQD	-0.568
HMSNRDNPVVLDFKKVKSTEQLDNILEEYIRENFEGYTVKGRMFSSDEGKFIIALALKDDDGKRALVYFDV	-1.06
HMDPPISNDARNAINAKLMKFSELHPNEMKKLVEAYKKEFKVSKISPITLARQGEFLSHAISKIDDT	-0.0331
HMVEIPEFKITTFVNTDNEQIAEFENGFTDKKAEITFNNTKYVFKEKLPDQDGIRTYVYEELHE	-0.438

Sequence	soluble fraction (log2)
HMRGLFTVYMVGEKASRVGELDEEMVYESRIGDVFALGATSWRIEEITHDRVLVSPAYGQPGRLPFWH	-1.72
HMAAQDLIVKTDASQVEARVLEISPDAVRYKRFSNPDGPTYVLPVAEIRYIRYANGEVEYYA	-0.207
HMIAGHLQIKNDYYYMVLSYTDSDGKRKQPWIPTGLPMKGNKKRAEKMLIETRQTYVPPVSSG	0.203
HMSDAGAIEPTIKEILASNPKAVEEYLAGNIKNINALIGQSMKALHGKADPQTVRNLLAKLLDEM	-0.487
HMDERLAKLTPQERKILDLIAEGATNRQIGTELHLAEKTVKNYVSNMLMKLGMSRRTEAAVFAVKASIN	≥ 0.43
HMYNIDSFMTKNYPTMERFTLSDVQKKYKTTFGLFVKQDELASMIEKTGRFNITSSKNVKYVNR	0.313
HMVTDSGEIEKLVDEVIDNNPDQVQQFREGKQQVLSYLVGQAMKLSRGKANPNQVNQFLRDKL	0.152
HMGLNPSILVKLGNANIKTIDNLADLASDELKEILEDISITSKEADEIIMRARSSWFEEDDKKEDNI	0.175
HMNTNDFTIGTRVRTTKKGNGSSDGTSNTARSGIEGTITRIIPEAKYPYLVSTTVPMGWYKKDALEK	0.157
HMNPSRPASKEELLGLFEHLERALDAVTFFRPAEKKPVVVQTLRAMLTKASFTEQDIRTMRGVIAALEN	-0.986
HMDIRVAHVDDDMSFGEAFAQARSQVGPGGVFEWHGKLYGTYTAEEWASMSPAERSQYQQAVFN	0.105
HMRDTLSKQLLTEEMVLQFIREMREHDPGIGGEKLHAMYLGRFGRDYEYMVGRDKMEMIIAENNLNVR	-1.05
HMSTTDGIERFLASGAVKGIGRTMAARIVEHFGSRTLTVMESEPERLTEVAGIGRKKAESIAASYAELS	-0.137
HMSHRVGDVVELTAVRMNDQGVFLDAGTGNTSDDILLHKHQMTSPVSVGDKVKVQLYLDAKNRITASMKL	-0.199
HMYVTGETIRHLRTQRRMTQEQLAETLGVTGKAVSKWETGRGFPDMSLLEPLARALRISVPELLSGE	0.0292
HMTTIAQMTGPQRAAVILLVLGEDHGRTIWQEFDDDEIRIITRAMAELGTVDADEVERLMLDFVGKLSS	-1.75
HMDSGLEQAKTAALENAELETSQVTFIKAELDYDDGKKVYEIEFVTSAMKYEYQVKADDFSILEMSKETIE	-0.129
HMELPSDEHLDDISHLARIGHKKGLQEKIIQLEQQGLASAEFIQQLKTLTNNFQFEKIIQWVDSEL	-0.848
HMAKNYYEILGLKSDATLPEIKKAFKKLSKKFHPDKNRDDDGYFESMFKSINEAYQVLIDEDKRATFDSHH	0.166
HMSPLALLTPRELDILRAMTAGASNKEIARQFAIAETTVKIHVQHILRKLDVTTRVHAAVMASESGL	-1.09
HMSFGKKLRSLRQEKKLSQVELSKKLNVTSQALSQYELGKRIPDAEMIIRIADFFDVSVDYLLDRT	-0.137
HMQTQYIVDTKTTLLVRTGPGKSNSQFGRLKNGETINVYAIKNGWAEISYNGKTGYVSEQYIKLA	0.327
HMFEDYNELDEYLETRFIPTYVLLKQRKNANGEIDHFPSIRLQHIMALKLSEAELEHVMNYLKEKNIRVG	-0.182
HMDADGEPIKLDQIGISHLSFTVADVKSLGEELVAKGVKLAAPMEAFTSPEGRISSIFVYDPDGILLQFDD	-0.123
HMSTVTEVHYIAFKNGRIVDIKAALTGSAVTATSIKEQPKIENYNYTTSEVRDGILYHTYAPVA	0.195
